Reference: patent US20240207311A1, “TUMOR INFILTRATING LYMPHOCYTES THERAPY” (Alethia Biotherapeutics Inc., priority 2021, published 2024)
“Also recorded” adds a separate entry of the source.

What was measured:
Type in all cases: in vivo, Balb/c mice
[1] = system: 4T1 primary tumors; test: CD45+ immune cells purified from excised 4T1 primary tumors (Example 2); conditions: monotherapy (Group 2 docetaxel; Group 5 AB-16B5); primary tumors excised at Day 16
Source text: The primary tumors excised at Day 16 post implantation, were processed with collagenase and hyaluronidase and immune cells were purified by positive selection using magnetic latex beads coated with an anti-CD45 antibody. The purified cells were transferred into small petri dishes containing culture medium supplemented with IL2 and IL7 to perform phenotypic analyses.

[2] = system: 4T1 mouse mammary carcinoma cells; test: Number of metastatic lung nodules in 4T1-implanted animals (Example 2); conditions: monotherapy IP for 5 weeks (Group 2 docetaxel 10 mg/kg weekly; Group 5 AB-16B5 twice weekly); counted Day 37
Protocol: Five groups, each consisting of 10 female Balb/c mice were assigned to this study (see Table 1 below). All animals received subcutaneous implantation of 4T1 mouse mammary carcinoma cells in the 4th inguinal mammary gland. Treatment was initiated on the day of implantation (defined as Day 1). Animals from Group 1 (Gr. 1) received IP treatment of saline vehicle control twice a week for the duration of the study. Animals from Group 2 (Gr. 2) received 10 mg/kg of docetaxel weekly for five weeks by IP administration. Animals from Group 3 (Gr. 3) received 10 mg/kg of docetaxel weekly for two weeks and 10 mg/kg of AB-16B5, twice weekly for five weeks. Animals from Group 4 (Gr. 4) received 10 mg/kg of docetaxel weekly and 5 mg/kg of 16B5 twice weekly each over the course of a five weeks treatment. Animals from Group 5 (Gr. 5) received AB-16B5 twice weekly for five weeks. On Day 36, the primary tumors were excised and on Day 37, the animals were sacrificed and the number of grossly visible metastatic nodules on the surface of the lungs was counted.

[3] = system: 4T1 lung metastases; test: Immunohistochemistry of lung metastases in 4T1-implanted mice (Example 1); conditions: 10 mg/kg IP thrice a week
Source text: Balb/c mice were orthotopically implanted with 5×10^5 4T1 cells in the 4th mammary fat pad. Animals received IP saline treatment thrice weekly. The primary tumor was surgically removed at Day 16 post-implantation. The animals were sacrificed at Day 36 and the lungs were excised. Tissues were fixed in paraformaldehyde and processed for paraffin embedding. Tissue sections were probed with anti-mouse CD3, anti-mouse CD8 and anti-mouse B220 antibodies. […] Results presented in FIG. 1 indicate that the 4T1 lung metastases create an immune cold microenvironment which prevents the infiltration of B and T lymphocytes in tumors. Delineated regions indicate that CD3 and CD8 T lymphocytes are restricted in the tumor margin as a consequence of EMT.
Animals bearing 4T1 tumors were treated with the AB-16B5 antibody (murine 16B5) thrice a week IP at 10 mg/kg. The primary tumor was surgically removed at Day 16 post-implantation. The animals were sacrificed at Day 36 and the lungs were excised. Tissues were fixed in paraformaldehyde and processed for paraffin embedding. Tissue sections were probed with anti-mouse CD3, anti-mouse CD8 and anti-mouse B220 antibodies.

Molecule	CD45+ immune cells in primary tumors [1]	metastatic lung nodules [2]	plasmocytes penetration in tumors ([3]; Day 36)	T lymphocyte infiltration of lung metastases ([3]; Day 36, anti-CD3, anti-CD8 staining)	lung metastases (number and size) ([3]; lungs excised Day 36, FIG. 2)
CC(=O)O[C@@]12CO[C@@H]1C[C@H](O)[C@@]1(C)C(=O)[C@H](O)C3=C(C)[C@@H](OC(=O)[C@H](O)[C@@H](NC(=O)OC(C)(C)C)c4ccccc4)C[C@@](O)([C@@H](OC(=O)c4ccccc4)[C@H]21)C3(C)C [docetaxel]	very few CD45+ were present	as many metastatic lung nodules as the saline control group; also recorded: relatively ineffective			
AB-16B5: anti-clusterin antibody, murine 16B5 (VL SEQ ID NO:7, VH SEQ ID NO:8), used in the mouse studies (antibody, V domains shown, Murine 16B5 VH; Murine 16B5 VL) VH: EVQLQQSGAELVKPGASVRLSCTTSGFNIKDIYMHWVKQRPEQGLEWIGRIDPAYGNTKYDPKFQGKATITADTSSNTAYLQLSSLTSEDTAVYYCARRYDTAMDYWGQGTSVTVSS VL: DIVMSQSPSSLAVSAGEKVTMSCKSSQSLLNSRTRKNYLAWYQQKPGQSPKLLIYWASTRESGVPDRFTGSGSGTDFTLTISSVQAEDLAVYYCKQSYNLWTFGGGTKLEFK	more immune cells	less metastatic lung nodules than the saline-control-treated mice	evidence of plasmocytes penetration	densely infiltrated with CD3 and CD8 T cells	fewer and much smaller lung metastases
